Here are results for 6 molecules from patent US20250026787A1 (GLO PHARMA, published 2025).

Square brackets hold non-standard residues; d marks the D form. Ends that are not written are not given here.

By IC50 is commonly meant the concentration that gives 50% inhibition.

In assay [1] the target is T1, Human recombinant melanocortin MC1 receptor (human, UniProt Q01726 1-317).
T1 construct: whole, on cells; Eurofins Discovery assay Item 251100; a 3 ug aliquot of receptors from CHO-K1 cells was incubated, filtered and washed (probably a membrane preparation); also called Melanocortin 1 Receptor; MCIR
Description: radioligand competition, displacement of [125I]NDP-alpha-MSH from human MC1R (CHO-K1), Example 7. Here is the method: (§1) The binding of Group A MCIR peptide antagonists of the disclosure was evaluated in a competition assay (MC1 Human Melanocortin GPCR Binding (Agonist Radioligand) Assay, Item 251100, Eurofins Discovery). Peptides were synthesized by AnaSpec (Fremont, CA). Human recombinant melanocortin MCI receptors were expressed in CHO-K1 cells in modified HEPES-KOH buffer pH 7.0. A 3 μgs aliquot was incubated with 0.04 nM [¹²⁵I]NDP-α-MSH for 120 minutes at 37° C. Non-specific binding was estimated in the presence of 1 μM NDP-α-MSH. Receptors were filtered and washed, and the filters counted to determine [¹²⁵I]NDP-α-MSH specifically bound. Peptide antagonists of the disclosure having amino acid sequences as set forth in SEQ ID NOS: 11, 16, 25, 27, 32, 35, and 40 were screened at five concentrations. Inhibition curves were obtained by determining the reduction of bound α-MSH in the presence of an amount of, and/or by increasing amounts of, each peptide antagonist.

Assay [2] deals with T1, Human recombinant melanocortin MC1 …. Description: radioligand competition, displacement of [125I]NDP-alpha-MSH from human MC1R (CHO-K1), Example 1. Here is the method:
as §1, with “determine [¹²⁵I] NDP-α-MSH” for “determine [¹²⁵I]NDP-α-MSH”, “40 (each having a C-terminal —NH2)” for “40”, “five concentrations, as well as a positive control, SEQ ID NO: 1 (Melanostatine-5).” for “five concentrations.”, “antagonist. Non-specific binding of peptide was estimated separately in the presence of a vast excess (1 mM) of unlabeled α-MSH, which occupies all the available receptor binding sites.” for “antagonist.”
Based on the competitive binding curve, the IC₅₀ values were determined (Eurofins or AAT Bioquest IC₅₀ calculator). […]
(In a radioligand displacement assay an active substance lowers the binding of a labelled ligand.)

T1 sequence (Q01726 whole entry): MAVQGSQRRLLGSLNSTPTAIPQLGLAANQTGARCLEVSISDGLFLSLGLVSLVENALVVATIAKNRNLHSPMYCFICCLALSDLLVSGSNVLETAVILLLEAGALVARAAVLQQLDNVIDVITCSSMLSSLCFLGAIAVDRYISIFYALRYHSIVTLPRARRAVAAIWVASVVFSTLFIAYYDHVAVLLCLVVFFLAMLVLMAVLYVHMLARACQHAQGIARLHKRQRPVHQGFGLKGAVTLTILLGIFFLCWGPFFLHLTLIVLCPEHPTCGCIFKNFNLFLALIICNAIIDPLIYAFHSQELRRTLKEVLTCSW

B1: SEQ ID NO: 32 (peptide)
peptide: IFR[dW]FKPV-NH2
modifications: N-terminus assumed
SMILES: CC[C@H](C)[C@H](N)C(=O)N[C@@H](Cc1ccccc1)C(=O)N[C@@H](CCCNC(=N)N)C(=O)N[C@H](Cc1c[nH]c2ccccc12)C(=O)N[C@@H](Cc1ccccc1)C(=O)N[C@@H](CCCCN)C(=O)N1CCC[C@H]1C(=O)N[C@H](C(N)=O)C(C)C
notes: Printed as Ile-Phe-Arg-dTrp-Phe-Lys-Pro-Val-NH2 (8 residues)
In the case of B1, the IC50 in assay [1] is less than 0.2 µM.

B2: SEQ ID NO: 27 (peptide)
peptide: MVFR[dW]FKPV-NH2
modifications: N-terminus assumed
SMILES: CSCC[C@H](N)C(=O)N[C@H](C(=O)N[C@@H](Cc1ccccc1)C(=O)N[C@@H](CCCNC(=N)N)C(=O)N[C@H](Cc1c[nH]c2ccccc12)C(=O)N[C@@H](Cc1ccccc1)C(=O)N[C@@H](CCCCN)C(=O)N1CCC[C@H]1C(=O)N[C@H](C(N)=O)C(C)C)C(C)C
notes: Printed as Met-Val-Phe-Arg-dTrp-Phe-Lys-Pro-Val-NH2
Regarding B2, the half-maximal inhibitory concentration (IC50) in assay [1] is more than 0.5 µM.

B3: Melanostatine-5 / Nonapeptide-1 (SEQ ID NO: 1) (peptide)
peptide: MP[dF]R[dW]FKPV
notes: Printed as Met-Pro-D-Phe-Arg-D-Trp-Phe-Lys-Pro-Val; no terminal modification is printed for the control; also called control; positive control
Turning to B3, the 50% inhibitory concentration (IC50) is less than 0.2 µM in assay [1] and 0.12 µM in assay [2].

B4: SEQ ID NO: 16 (peptide)
peptide: FV[dF]R[dW]FKPV-NH2
modifications: N-terminus assumed
SMILES: CC(C)[C@H](NC(=O)[C@@H]1CCCN1C(=O)[C@H](CCCCN)NC(=O)[C@H](Cc1ccccc1)NC(=O)[C@@H](Cc1c[nH]c2ccccc12)NC(=O)[C@H](CCCNC(=N)N)NC(=O)[C@@H](Cc1ccccc1)NC(=O)[C@@H](NC(=O)[C@@H](N)Cc1ccccc1)C(C)C)C(N)=O
notes: Printed as Phe-Val-dPhe-Arg-dTrp-Phe-Lys-Pro-Val-NH2
Take B4: the IC50 in assay [1] was less than 0.2 µM.

B5: SEQ ID NO: 25 (peptide)
peptide: EV[dF]R[dW]FKPV-NH2
modifications: N-terminus assumed
SMILES: CC(C)[C@H](NC(=O)[C@@H]1CCCN1C(=O)[C@H](CCCCN)NC(=O)[C@H](Cc1ccccc1)NC(=O)[C@@H](Cc1c[nH]c2ccccc12)NC(=O)[C@H](CCCNC(=N)N)NC(=O)[C@@H](Cc1ccccc1)NC(=O)[C@@H](NC(=O)[C@@H](N)CCC(=O)O)C(C)C)C(N)=O
notes: Printed as Glu-Val-dPhe-Arg-dTrp-Phe-Lys-Pro-Val-NH2
Turning to B5, the IC50 in assay [1] is more than 0.5 µM.

B6: SEQ ID NO: 11 (peptide)
peptide: AV[dF]R[dW]FKPV-NH2
modifications: N-terminus assumed
SMILES: CC(C)[C@H](NC(=O)[C@@H]1CCCN1C(=O)[C@H](CCCCN)NC(=O)[C@H](Cc1ccccc1)NC(=O)[C@@H](Cc1c[nH]c2ccccc12)NC(=O)[C@H](CCCNC(=N)N)NC(=O)[C@@H](Cc1ccccc1)NC(=O)[C@@H](NC(=O)[C@H](C)N)C(C)C)C(N)=O
notes: Printed as Ala-Val-dPhe-Arg-dTrp-Phe-Lys-Pro-Val-NH2
For the molecule B6, the IC50 in assay [1] was 0.2 to 0.5 µM.
